In article PMC4794788, “Cell‐free synthesis of isotopically labelled peptide ligands for the functional characterization of G protein‐coupled receptors” (FEBS Open Bio, 2015):

Target: T1, human complement 5a receptor (C5aR) (Homo sapiens, UniProt P21730)
T1 construct: 10x His (N); FLAG (N); StrepII (C); made in house; host or cells: Sf9 insect cells (recombinant baculovirus, pOET5 / flashBAC); membrane preparation
T1 sequence (P21730 1-350): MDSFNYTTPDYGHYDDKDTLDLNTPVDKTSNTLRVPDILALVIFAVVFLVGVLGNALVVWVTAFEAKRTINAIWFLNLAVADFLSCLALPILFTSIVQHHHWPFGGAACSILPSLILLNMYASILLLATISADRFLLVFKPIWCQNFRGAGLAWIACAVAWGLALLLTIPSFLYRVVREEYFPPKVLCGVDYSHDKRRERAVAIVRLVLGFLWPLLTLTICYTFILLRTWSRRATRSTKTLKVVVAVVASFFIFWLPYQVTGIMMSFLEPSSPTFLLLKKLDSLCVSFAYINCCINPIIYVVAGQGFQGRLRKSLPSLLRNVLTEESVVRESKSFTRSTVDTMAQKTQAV
Assay: Saturation radioligand binding of [^3H]‐C5a^CF to C5aR in Sf9 membranes
Details: radioligand 31 pM‐8 nM; human C5aR coproduced with Gαi2, Sf9 membranes (10–50 μg total protein); 120 min, room temperature; 50 mM Hepes‐NaOH pH 7.4, 5 mM MgCl2, 1 mM CaCl2, 0.5% BSA, 75 mM NaCl; nonspecific: 50 μM H2N‐ChaW; filtration, scintillation counting; means ± SEM from three or two independent experiments in triplicate; read-out: KD (dissociation constant)
Source text: The complement 5a receptor was coproduced with Gαi2 in Sf9 insect cells. The cDNA encoding the human complement 5a receptor flanked by an N‐terminal 10x His and FLAG tag and a C‐terminal StrepII tag was cloned into the pOET5 transfer vector (Oxford Expression Technologies, Oxford, UK). pOET5 contains two expression cassettes, the receptor is expressed under the control of a polyhedron promoter; Gαi2 expression is regulated by a p10 promoter. Recombinant baculoviruses were generated with the flashBAC protein expression system (Oxford Expression Technologies) according to manufacturer's instructions. […] Total membrane protein content was determined by the bicinchoninic acid (BCA) method using bovine serum albumin as the standard.
For the determination of binding parameters, membranes containing the respective receptors (10–50 μg total membrane protein) were incubated with cell‐free synthesized tritium‐labelled ligands in varying concentrations. Binding was terminated by rapid filtration over glass fibre filters pretreated with 0.3% polyethyleneimine using a Brandel harvester (Brandel, Alpha Biotech Ltd, Killearn, UK) and analysed by liquid scintillation counting. […]
Data are represented as means ± SEM from three or two independent experiments performed in triplicate and analysed in […] […]

Kd: 1.18 ± 0.27 nM
B1: [^3H]‐C5a^CF: cell‐free‐synthesized tritium‐labelled complement 5a with N‐terminal hexa‐histidine tag; contains three proline residues (protein, UniProt P01031 678-751, looked up)
C5a anaphylatoxin: TLQKKIEEIAAKYKHSVVKKCCYDGACVNNDETCEQRAARISLGPRCIKAFTECCVVASQLRANISHKDMQLGR
modifications: C5a anaphylatoxin tritium label
